Data as given in publication PMC8345930, “Quaternary Structure and Hetero-Oligomerization of Recombinant Human Small Heat Shock Protein HspB7 (cvHsp)” (International Journal of Molecular Sciences, 2021).
One block for each binder: values may come before it.

B3: recombinant human small heat shock protein HspB7 (cvHsp), wild type, untagged (natural protein)
chain: not shown
notes: HspB7 (cvHsp), human; full copy recloned from Addgene #63108 into pET23b(+) at NdeI and XhoI; single Cys126; calculated monomer weight 18.6 kDa; HspB7-D (small oligomers, probably dimers) and HspB7-L (mostly large oligomers) are two oligomeric preparations of the same construct; the assays tell them apart; also called cardiovascular Hsp; HspB7-D; source: E. coli Rosetta2 (DE3) pLysS, purified …

Tests used:
[1] = biological target: the molecule itself; test: SEC; Δ13 and ΔSer deletion mutants of HspB7; analytical Superdex 200 Increase 10/30 GL, 50 mM phosphate pH 7.4, 150 mM NaCl
[2] = biological target: the molecule itself; test: SEC; HspB7-D preparation (flow-through of phenyl sepharose, Fraction 1); analytical Superdex 200 Increase 10/30 GL, 50 mM phosphate pH 7.4, 150 mM NaCl; 20, 50 or 100 μg loaded
[3] = biological target: the molecule itself; test: SEC; HspB7-L (0.6 mg/mL) reduced with 3 mM DTT, Cys126 modified with 8 mM iodoacetamide, then analytical SEC on Superdex 200 Increase
[4] = biological target: the molecule itself; test: cross-linking; disulfide cross-linking: reduced proteins alone or in equimolar mixture (15 µM each), 1 h at 42 °C, dialysed overnight at 37 °C against 50 mM Tris-HCl pH 8.0, 50 mM KCl, 0.1 mM PMSF; read by SDS-PAGE (HspB8) or urea gel electrophoresis (HspB6)
[5] = biological target: B3; test: SEC; oxidised (disulfide cross-linked) proteins alone or in equimolar mixture on Superdex 200 Increase GL 10/300; profile of the mixture compared with the arithmetic sum of the isolated proteins; details: both partners purified
[6] = biological target: B3; test: ELISA; sandwich: plate coated with monoclonal mouse anti-HspB6 antibody (clone 20-6) as capture; HspB6, HspB7 or their equimolar mixture added (25-400 ng of each protein per well), 1 h; HspB7 detected by rabbit polyclonal anti-HspB7 and HRP-conjugated anti-rabbit antibodies; details: both partners purified

B1: Δ13 mutant of HspB7 (lacking the first 13 residues) (domain or fragment)
chain: not shown
notes: HspB7 (cvHsp), human, lacking the first 13 residues; made by PCR from the pET23b(+) HspB7 plasmid (forward primer with an NdeI site, ATG before the codon of residue 14); The printed forward primer places a start codon (Met) directly before residue 14; source: E. coli Rosetta2 (DE3) pLysS, purified
binding result [1]: binds

B2: ΔSer mutant of HspB7 (lacking the polySer sequence, residues 17–29) (natural protein)
chain: not shown
notes: source: E. coli Rosetta2 (DE3) pLysS, purified
binding result [1]: binds

Binder: B3
stoichiometry N [2]: ~2

B4: HspB7 with Cys126 modified by iodoacetamide (natural protein)
chain: not shown
modifications: Cys126 modified by iodoacetamide
notes: HspB7 (cvHsp), human; full copy from Addgene #63108 in pET23b(+); the single SH group (Cys126) modified by iodoacetamide; Same construct as m1, chemically modified at Cys126; also called SH Mod HspB7-L
binding result [3]: binds

B5: Cys-mutant of HspB8 (C10S/C99S/C195S/N138C) (natural protein, human, UniProt Q9UJY1 1-196, looked up)
chain: MADGQMPFSSHYPSRLRRDPFRDSPLSSRLLDDGFGMDPFPDDLTASWPDWALPRLSSAWPGTLRSGMVPRGPTATARFGVPAEGRTPPPFPGEPWKVSVNVHSFKPEELMVKTKDGYVEVSGKHEEKQQEGGIVSKCFTKKIQLPAEVDPVTVFASLSPEGLLIIEAPQVPPYSTFGESSFNNELPQDSQEVTST
notes: HspB8, human, with the four mutations C10S/C99S/C195S/N138C; single Cys in the β7 strand at the position homologous to Cys137 of HspB1; also called HspB8 Cys; HspB8 Cys^Ox
binding result [4]: binds

binding result [5]: binds
B6: Cys-mutant of HspB6 (C46S/E116C) (natural protein, human, UniProt O14558 1-160, looked up)
chain: MEIPVPVQPSWLRRASAPLPGLSAPGRLFDQRFGEGLLEAELAALSPTTLAPYYLRAPSVALPVAQVPTDPGHFSVLLDVKHFSPEEIAVKVVGEHVEVHARHEERPDEHGFVARCFHRRYRLPPGVDPAAVTSALSPEGVLSIQAAPASAQAPPPAAAK
notes: HspB6, human, with the double mutation C46S/E116C; single Cys in the β7 strand at the position homologous to Cys137 of HspB1; also called HspB6 Cys; HspB6 Cys^Ox
binding result [4]: binds

binding result [6]: binds
B7: wild-type HspB6 (natural protein, human, UniProt O14558 1-160, looked up)
chain: MEIPVPVQPSWLRRASAPLPGLSAPGRLFDQRFGEGLLEAELAALCPTTLAPYYLRAPSVALPVAQVPTDPGHFSVLLDVKHFSPEEIAVKVVGEHVEVHARHEERPDEHGFVAREFHRRYRLPPGVDPAAVTSALSPEGVLSIQAAPASAQAPPPAAAK
notes: HspB6, human, full-size wild type; The abstract says that the wild-type HspB6 was used in the ELISA
